According to patent publication US20210340276A1:

Biological target: Human cancer-specific MUC1 peptide (PTL 1) (human)
Assay: ELISA, MUC1 peptide immobilized on 384-well plate, HRP anti-human Igκ detection, luminescence

EC50	Binder
290 pM	Sample No. 1: [DFO-C(═O)-(1,3-phenylene)-C(═O)-Gly-Lys-Z2]p-Fab (Fab, V domains shown, may carry the labeling moiety; sites not stated; [DFO-C(═O)-(1,3-phenylene)-C(═O)-Gly-Lys-Z2] labeling moiety bound via 2-iminothiolane to amino group(s) of the Fab, one or two per Fab by MS, sites and chain not stated; N-terminal Gln into pyroglutamic acid in a great majority (Example 2)) VH: QVQLVQSGAEVKKPGASVKVSCKASGYTFTNYGLSWVRQAPGQGLEWMGENHPGSGIIYHNEKFRGRVTLTADRSTSTAYMELSSLRSEDTAVYYCARSSGTRGFDYWGQGTLVTVSS VL: DVVMTQTPLSLSVTPGQPASISCRSSQSIVHSNGNTYLEWYLQKPGQSPQLLIYRVSNRFSGVPDRFSGSGSGTDFTLKISRVEAEDVGVYYCFQGSHGPWTFGQGTKLEIKR
350 pM	Sample No. 4: [DOTA]p-Fab (Fab, V domains shown, may carry the labeling moiety; sites not stated; DOTA bound directly (via N-hydroxysulfosuccinimidyl DOTA) to amino group(s) of the Fab, one or two per Fab by MS, sites and chain not stated; N-terminal Gln into pyroglutamic acid in a great majority (Example 2)) VH: QVQLVQSGAEVKKPGASVKVSCKASGYTFTNYGLSWVRQAPGQGLEWMGENHPGSGIIYHNEKFRGRVTLTADRSTSTAYMELSSLRSEDTAVYYCARSSGTRGFDYWGQGTLVTVSS VL: DVVMTQTPLSLSVTPGQPASISCRSSQSIVHSNGNTYLEWYLQKPGQSPQLLIYRVSNRFSGVPDRFSGSGSGTDFTLKISRVEAEDVGVYYCFQGSHGPWTFGQGTKLEIKR
310 pM	Sample No. 7: [DOTA-Met-Ile-NH-(CH2)2-Z1]p-Fab (Fab, V domains shown, may carry the labeling moiety; sites not stated; [DOTA-Met-Ile-NH-(CH2)2-Z1] labeling moiety bound via 2-iminothiolane to amino group(s) of the Fab, one to three per Fab by MS, sites and chain not stated; N-terminal Gln into pyroglutamic acid in a great majority (Example 2)) VH: QVQLVQSGAEVKKPGASVKVSCKASGYTFTNYGLSWVRQAPGQGLEWMGENHPGSGIIYHNEKFRGRVTLTADRSTSTAYMELSSLRSEDTAVYYCARSSGTRGFDYWGQGTLVTVSS VL: DVVMTQTPLSLSVTPGQPASISCRSSQSIVHSNGNTYLEWYLQKPGQSPQLLIYRVSNRFSGVPDRFSGSGSGTDFTLKISRVEAEDVGVYYCFQGSHGPWTFGQGTKLEIKR
300 pM	Sample No. 6: [DOTA-NH-CH2-(1,3-phenylene)-C(═O)-Gly-Lys-Z2]p-Fab (Fab, V domains shown, may carry the labeling moiety; sites not stated; [DOTA-NH-CH2-(1,3-phenylene)-C(═O)-Gly-Lys-Z2] labeling moiety bound via 2-iminothiolane to amino group(s) of the Fab, one to three per Fab by MS, sites and chain not stated; N-terminal Gln into pyroglutamic acid in a great majority (Example 2)) VH: QVQLVQSGAEVKKPGASVKVSCKASGYTFTNYGLSWVRQAPGQGLEWMGENHPGSGIIYHNEKFRGRVTLTADRSTSTAYMELSSLRSEDTAVYYCARSSGTRGFDYWGQGTLVTVSS VL: DVVMTQTPLSLSVTPGQPASISCRSSQSIVHSNGNTYLEWYLQKPGQSPQLLIYRVSNRFSGVPDRFSGSGSGTDFTLKISRVEAEDVGVYYCFQGSHGPWTFGQGTKLEIKR
490 pM	Sample No. 3: [DOTA-CH2-(1,4-phenylene)-NH-C(═S)]p-Fab (Fab, V domains shown, may carry the labeling moiety; sites not stated; [DOTA-CH2-(1,4-phenylene)-NH-C(═S)] (from p-SCN-Bn-DOTA) bound to amino group(s) of the Fab, one to four per Fab by MS, sites and chain not stated; N-terminal Gln into pyroglutamic acid in a great majority (Example 2)) VH: QVQLVQSGAEVKKPGASVKVSCKASGYTFTNYGLSWVRQAPGQGLEWMGENHPGSGIIYHNEKFRGRVTLTADRSTSTAYMELSSLRSEDTAVYYCARSSGTRGFDYWGQGTLVTVSS VL: DVVMTQTPLSLSVTPGQPASISCRSSQSIVHSNGNTYLEWYLQKPGQSPQLLIYRVSNRFSGVPDRFSGSGSGTDFTLKISRVEAEDVGVYYCFQGSHGPWTFGQGTKLEIKR
300 pM	Sample No. 2: [DFO-C(═O)-CH2O-(1,3-phenylene)-C(═O)-Gly-Lys-Z2]p-Fab (Fab, V domains shown, may carry the labeling moiety; sites not stated; [DFO-C(═O)-CH2O-(1,3-phenylene)-C(═O)-Gly-Lys-Z2] labeling moiety bound via 2-iminothiolane to amino group(s) of the Fab, one or two per Fab by MS, sites and chain not stated; N-terminal Gln into pyroglutamic acid in a great majority (Example 2)) VH: QVQLVQSGAEVKKPGASVKVSCKASGYTFTNYGLSWVRQAPGQGLEWMGENHPGSGIIYHNEKFRGRVTLTADRSTSTAYMELSSLRSEDTAVYYCARSSGTRGFDYWGQGTLVTVSS VL: DVVMTQTPLSLSVTPGQPASISCRSSQSIVHSNGNTYLEWYLQKPGQSPQLLIYRVSNRFSGVPDRFSGSGSGTDFTLKISRVEAEDVGVYYCFQGSHGPWTFGQGTKLEIKR
310 pM	Sample No. 5: [DOTA-Gly-Lys-Z2]p-Fab (Fab, V domains shown, may carry the labeling moiety; sites not stated; [DOTA-Gly-Lys-Z2] labeling moiety bound via 2-iminothiolane to amino group(s) of the Fab, one or two per Fab by MS, sites and chain not stated; N-terminal Gln into pyroglutamic acid in a great majority (Example 2)) VH: QVQLVQSGAEVKKPGASVKVSCKASGYTFTNYGLSWVRQAPGQGLEWMGENHPGSGIIYHNEKFRGRVTLTADRSTSTAYMELSSLRSEDTAVYYCARSSGTRGFDYWGQGTLVTVSS VL: DVVMTQTPLSLSVTPGQPASISCRSSQSIVHSNGNTYLEWYLQKPGQSPQLLIYRVSNRFSGVPDRFSGSGSGTDFTLKISRVEAEDVGVYYCFQGSHGPWTFGQGTKLEIKR
